In patent US20140087991A1, “PEPTIDE PRODRUGS” (The Johns Hopkins University, priority 2006, published 2014):

Key:
FAP [1] = target: T1, FAP (Homo sapiens, UniProt Q12884); assay: LC-MS/MS cleavage map of FAP digest of 100 kDa recombinant human gelatin; assay type: biochemical; conditions: 100 kDa gelatin digest; for Percentage: share of all occurrences
T1 construct: the extracellular domain of FAP was cloned with a His-6 tag; made in house
T1 sequence (Q12884 26-760 limits assumed): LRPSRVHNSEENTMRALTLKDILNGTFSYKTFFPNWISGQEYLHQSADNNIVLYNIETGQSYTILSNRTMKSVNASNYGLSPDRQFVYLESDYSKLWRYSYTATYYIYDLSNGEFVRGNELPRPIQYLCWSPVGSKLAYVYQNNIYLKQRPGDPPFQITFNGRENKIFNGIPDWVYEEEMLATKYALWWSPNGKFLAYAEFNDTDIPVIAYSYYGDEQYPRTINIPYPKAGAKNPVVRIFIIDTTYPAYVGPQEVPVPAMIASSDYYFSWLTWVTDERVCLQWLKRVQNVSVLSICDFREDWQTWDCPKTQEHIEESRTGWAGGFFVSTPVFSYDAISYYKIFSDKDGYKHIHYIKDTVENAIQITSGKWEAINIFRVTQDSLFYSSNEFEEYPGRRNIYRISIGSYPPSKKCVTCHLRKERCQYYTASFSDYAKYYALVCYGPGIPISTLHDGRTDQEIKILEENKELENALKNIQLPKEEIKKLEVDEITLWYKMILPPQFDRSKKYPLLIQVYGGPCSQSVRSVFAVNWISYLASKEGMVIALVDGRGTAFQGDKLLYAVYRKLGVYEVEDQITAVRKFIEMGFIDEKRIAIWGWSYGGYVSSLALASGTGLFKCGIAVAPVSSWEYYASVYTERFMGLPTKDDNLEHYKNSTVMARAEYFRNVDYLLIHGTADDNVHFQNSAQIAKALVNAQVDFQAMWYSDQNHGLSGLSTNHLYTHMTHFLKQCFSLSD
Procedure: Human collagen I (Becton Dickinson, Franklin Lakes, N.J.) and recombinant human gelatins of 100 KDa and 8.5 KDa (Fibrogen, San Francisco, Calif.) were dissolved in reaction buffer to a final concentration of 100-300 μg/ml. 0.5-1 μg of FAP was added per 100 μgs of protein substrate. Digestion was done for 4-6 hrs at 37° C. As a positive control trypsin digestion was used. As a negative control, protein solutions were incubated either with BSA or buffer only. Peptide fragments of a size <30 KDa were purified using 30 KDa Microcon spin filter (Millipore, Billerica, Mass.).
Peptides obtained from FAP/gelatin digests were dried using a speedvac (Eppendorf), resuspended in LC/MS loading buffer (3% ACN, 0.1% formic acid), and analyzed using nano-flow LC/MS/MS on an Agilent 1100 series nano-LC system (Agilent) coupled to an LCQ Duo ion trap mass spectrometer (ThermoFinnigan). Peptides were pre-concentrated on a 5 mm Zorbax C18 trap column (Agilent) and then eluted onto a 100×0.075 mm custom-packed Biobasic C18 (ThermoElectron) reversed phase capillary column connected to a laser-pulled electrospray ionization emitter tip (New Objective) at a flowrate of 300 nl/min Peptides were eluted the nanospray source of the LCQ (Proxeon, Denmark) using the following gradient: 0% B at 0 min, 5% B at 8 min, 45% B at 50 min, 90% B at 55 min, 90% B at 60 min (B=0.1% formic acid in acetonitrile) at a spray voltage of 2.5 kV. The LCQ was operated in data-dependent mode using the Xcalibur software (ThermoFinnigan) in which every MS scan (400-1800 m/z) was followed by MS/MS scans (400-1800 m/z) on the 3 most intense ions using an isolation window of ±1.5 Da. Ions selected for MS/MS fragmentation were dynamically excluded for 30 s.
MS/MS data were searched against a collagen FASTA database using the SEQUEST search algorithm built into the Bioworks Browser (ThermoFinnigan) allowing for the variable modification of Methionine oxidation. Peptides were initially filtered in a charge dependent manner using an XCorr filter of 1.5, 2, and 2.5 for singly, doubly, and triply charged peptides. All MS/MS spectra used to identify peptides were manually inspected for validation of y and b-ion series. To quantify the relative abundance of each identified peptide we compared the ion current for each of the observed peptide parent ions from the MS spectra. The contribution of each parent ion to the total ion current was extracted and integrated over the peptide elution peak.
To resolve each particular mass fragment a Liquid Chromatograpy (LC) and Tandem mass spectroscopy (MS-MS) [LC-MS-MS] method was developed. Using this method, peptide fragments from FAP digests of the 8.5 kDa and 100 kDa recombinant gelatin were time-resolved by nano reverse phase LC (FIGS. 12 and 14) and then sequenced using an ion trap mass spectrometer operating in MS/MS mode. Initial methodological issues were worked out using the 8.5 kDa fragment before analyzing the entire 100 kDa protein. MS/MS spectra were searched against the 8.5 kDa and 100 kDa gelatin sequences using the SEQUEST algorithm with no cleavage specificity. Most of the identified cleavage sites in both sized gelatins occurred after Proline. However, FAP cleavage sites in these gelatins were not restricted to Proline alone. FAP was also found to cleave after Ala (e.g. A/A, A/G, A/P, A/R), Asp (e.g. D/G, D/T), Gly (e.g. G/A, G/E, G/L, G/Q, G/P, G/V), Glu (i.e., E/P), Lys (i.e., K/A, K/G), Ser (e.g. S/P) and Val (e.g. V/G).
To identify the most preferentially cleaved sites, we relatively quantified the abundance of each of the identified peptides by integrating the ion current generated by each peptide throughout the chromatogram. After identification of a peptide from a MS/MS spectrum, we extracted the ion current for the parent mass of the ion from the total MS ion chromatogram using a 1.5 Da tolerance window, and then integrated under the peak (FIGS. 12 and 14). […]

FAP [2] = target: T1, FAP; assay: FAP gelatinase and collagenase assay with quenched (DQ) proteins; assay type: biochemical
Procedure: Quenched gelatin and collagen conjugates were used to detect and confirm FAP's gelatinase and collagenase activity. DQ™ Gelatin from pig skin, DQ™ collagen, type IV from human placenta, DQ™ collagen, type I from bovine skin, all as fluorescent conjugates (Invitrogen, Rockville, Md.) were digested with FAP and digestion monitored on a fluorescence plate reader. Protein substrates were dissolved in reaction buffer (100 mM NaCl, 100 mM Tris, pH 7.8) to a final concentration of 100 μgs/ml. Trypsin digestion was used as a positive control. As a negative control the His tagged extra cellular domain of Prostate Specific Membrane Antigen (PSMA), which was similarly purified from S2 cells under the same conditions as FAP. Fluorescent quenched DQ™ Bovine Serum Albumin was used as a negative control for FAP protease activity.
Quenched forms of Gelatin and Collagen were used to confirm the gelatinase and collagenase activity of recombinant FAP. Quenching is achieved by labeling these proteins with the fluorophore FITC such that fluorescence signal from the intact protein is minimal due to is self-quenching by the fluorphore. Protein digestion releases FITC-labeled fragments that result in measurable increase in overall fluorescence signal from the reaction mixture. […] On a relative basis gelatin was digested ˜10-fold better by FAP than collagen I. MALDI analysis of digested fragments was performed to confirm hydrolysis.

| Substance | Occurences (FAP [1]) | Percentage (FAP [1]) | relative abundance of fragment by integrated ion current (FAP [1]) | digestion by FAP relative to collagen I (FAP [2]) | hydrolysis of FITC-quenched protein by FAP (FAP [2]; 100 μgs/ml protein substrate) |
| --- | --- | --- | --- | --- | --- |
| P.SGEPGKQGPSGASGERGPPGP.M: FAP cleavage fragment, 100 kDa recombinant human gelatin | 4 | 1.90 |  |  |  |
| P.IGPPGPAGAPGDKGESGP.S: FAP cleavage fragment, 100 kDa recombinant human gelatin | 6 | 2.86 |  |  |  |
| P.PGLAGPPGESGREGAPGAEGSPGRD.G: FAP cleavage fragment, 100 kDa recombinant human gelatin | 2 | 0.95 |  |  |  |
| P.AGPPGAPGAPGAPGP.V: FAP cleavage fragment, 100 kDa recombinant human gelatin | 8 | 3.81 |  |  |  |
| P.QGFQGPPGEPGEPGASGP.M: FAP cleavage fragment, 100 kDa recombinant human gelatin | 2 | 0.95 |  |  |  |
| P.VGPPGPPGPPGPPGPP.: C-terminal FAP cleavage fragment, 100 kDa recombinant human gelatin (PVGPPGPPGPPGPPGPP) | 19 | 9.05 | most abundantly identified fragment |  |  |
| P.PGAPGAPGAPGPVGPAGKSGDRGETGP.A: FAP cleavage fragment, 100 kDa recombinant human gelatin | 2 | 0.95 |  |  |  |
| A.PGPVGPAGKSGDRGETGP.A: FAP cleavage fragment, 100 kDa recombinant human gelatin | 1 | 0.48 |  |  |  |
| A.GPPGAPGAPGAPGP.V: FAP cleavage fragment, 100 kDa recombinant human gelatin | 1 | 0.48 |  |  |  |
| P.AGPPGFPGAVGAKGEAGP.Q: FAP cleavage fragment, 100 kDa recombinant human gelatin | 2 | 0.95 |  |  |  |
| A.AGRVGPPGP.S: FAP cleavage fragment, 100 kDa recombinant human gelatin | 2 | 0.95 |  |  |  |
| P.VGVQGPPGP.A: FAP cleavage fragment, 100 kDa recombinant human gelatin | 3 | 1.43 |  |  |  |
| P.QGVRGEPGPPGP.A: FAP cleavage fragment, 100 kDa recombinant human gelatin | 3 | 1.43 |  |  |  |
| P.AGPPGAPGAPGAPGPVGP.A: FAP cleavage fragment, 100 kDa recombinant human gelatin | 2 | 0.95 |  |  |  |
| P.AGPPGAPGAPGAPGPVGPAGKSGDRGETGP.A: FAP cleavage fragment, 100 kDa recombinant human gelatin | 6 | 2.86 |  |  |  |
| G.PPGPAGAPGDK.G: FAP cleavage fragment, 100 kDa recombinant human gelatin | 2 | 0.95 |  |  |  |
| Gelatin |  |  |  | ~10 fold | readily hydrolyzed |
| P.PGPAGAPGDKGESGP.S: FAP cleavage fragment, 100 kDa recombinant human gelatin | 2 | 0.95 |  |  |  |
| P.GPPGAPGP.Q: FAP cleavage fragment, 100 kDa recombinant human gelatin | 1 | 0.48 |  |  |  |
| A.GPAGPPGP.I: FAP cleavage fragment, 100 kDa recombinant human gelatin | 1 | 0.48 |  |  |  |
| E.PGKQGPSGASGERGPPGP.M: FAP cleavage fragment, 100 kDa recombinant human gelatin | 5 | 2.38 |  |  |  |
| P.SGNAGPPGPPGP.A: FAP cleavage fragment, 100 kDa recombinant human gelatin | 14 | 6.67 |  |  |  |
| P.AGPKGEPGSPGENGAPG.Q: FAP cleavage fragment, 100 kDa recombinant human gelatin | 1 | 0.48 |  |  |  |
| A.PGAPGPVGPAGKSGDRGETGP.A: FAP cleavage fragment, 100 kDa recombinant human gelatin | 2 | 0.95 |  |  |  |
| P.AGNPGADGQPGAKGANGAPGIAGAPGFPGARGP.S: FAP cleavage fragment, 100 kDa recombinant human gelatin | 4 | 1.90 |  |  |  |
| P.GGPPGPKGNSGEPGAPGSKGD.T: FAP cleavage fragment, 100 kDa recombinant human gelatin | 1 | 0.48 |  |  |  |
